# Measured values from IntAct's records for PubMed 21633354.
# B1: Condensin complex subunit 2 (Schizosaccharomyces pombe (strain ATCC 38366 / 972)), Q9Y7R3 (parent)
# chain: MKRASLGGHAPVSLPSLNDDALEKKRAKENSRKQRELRRSSALHSITPRRESLNNSSPFNSSHQVPVLSNFEEWIKLATDNKINSTNTWNFALIDYFHDMSLLRDGEDINFQKASCTLDGCVKIYTSRIDSVATETGKLLSGLANDSKVLQQTEEGEDAENDDEDLQKKKERKRAQRSVKTLVKDFESIRAKKFELECSFDPLFKKMCADFDEDGAKGLLMNHLCVDQHGRIVFDSSDTVIKDLENKDVEAESQEAVVAAPIESHDTEMTNVHDNISRETLNGIYKCYFTDIDQLTICPSLQGFEFDSKGNLDVSLLKSLSDEVNMITTTSLVDNTMEKTDADAASLSSDSDGEEGHIVHALEEMAYDEENPYVDVVPKAMDESENPDFGVDTEVNMADGSTMNENYSIISTAAANGVYEYFDKSMKKNWAGPEHWRIQALRKNINNASTVFNSSNTAESSDNVSRSLSSTERKKRRELDNAIDFLQEVDVEALFTPATSSLKLPKSHWKRHNRCLLPDDYQYDSKRLLQLFLKPKMSVLPNADGEGQLQLNKALDDENDLDGIQPHGFDSDGSDNVDEGIPPYGFGDSDSPKQTPLLTPPSSSGFGDNLLLTARLAKPDMLNYAKRAKKVDVRVLKEKLWKCLDLENTIKENSINSHIEGSEMESEETNMPVKSFFSTVNQLEETYEKKELKDISTSFAFICVLHLANEHNLELTSNEDFSDVFIRPGPNLTTLEALENDV
# Variants of: B1
# Settings: with h2a2_schpo hta2, P04910
row,Variant,effect of a mutation on the interaction
1,S5A;S41A;S52A,decreasing interaction

# Variants of: B1
# Settings: with h2az_schpo pht1, P48003
# Sequence of h2az_schpo pht1, P48003 (P48003 whole entry): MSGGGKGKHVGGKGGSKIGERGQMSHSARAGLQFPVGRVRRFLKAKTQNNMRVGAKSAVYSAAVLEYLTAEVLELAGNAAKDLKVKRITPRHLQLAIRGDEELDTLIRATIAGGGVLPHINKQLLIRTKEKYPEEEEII
row,Variant,effect of a mutation on the interaction
1,S5A;S41A;S52A,decreasing interaction
